Among the data in patent US20260209372A1 are OD values, retold here.

In this assay the target is recombinant human CD30L protein (human) (UniProt P32971). The experiment in a line: ELISA. (An ELISA detects its analyte on a solid surface through an enzyme-linked reagent.)
recombinant human CD30L protein (human), sequence (P32971 63-234 limits assumed): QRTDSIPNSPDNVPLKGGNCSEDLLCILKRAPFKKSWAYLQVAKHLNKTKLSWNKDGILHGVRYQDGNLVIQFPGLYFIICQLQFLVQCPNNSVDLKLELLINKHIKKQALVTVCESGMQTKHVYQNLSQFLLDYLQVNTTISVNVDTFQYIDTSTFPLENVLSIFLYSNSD

B1: Clone 59 (antibody, V domains shown)
VH: QVQLVESGGGVVQPGRSLRLSCAASGFTFSIYGMHWVRQAPGKGLEWVAVIWYDGSNKYYVDSVKGRFTISRDNSKNSLYLQMNSLRAEDTAVYYCAREGNLFDYWGQGTLVTVSS
VL: DIQMTQSPSTLSASVGDRVTITCRASQSISSWLAWYQQKPGKAPKLLIYKASSLESGVPSRFSGSGSGTEFTLTISSLKPDDFATYYCQQYKSYYTFGQGTKLEIK
As for B1, the OD came to 0.06 OD.
